Measurements from US9382305B2, “Relaxin fusion polypeptides and uses thereof” (BAYER INTELLECTUAL PROPERTY GMBH, priority 2011, dated 2016).

What was measured:
[1] = biological target: T1, human LGR7/RXFP1 receptor (Homo sapiens, UniProt Q9HBX9); assay: Relaxin activity of plasma samples from scR-Fc 13 treated rats on CHO-CRE-LGR7 cell line; type: cell-based; conditions: plasma 3, 5 and 7 days after intravenous administration to rats
T1 construct: cloned as 2271 base pair long DNA fragment; expressed in transfected cells; host or cells: CHO K1 (ATCC CCL-61) with CRE-luciferase reporter; receptor in pcDNA3.1(-)
T1 sequence (Q9HBX9 1-757): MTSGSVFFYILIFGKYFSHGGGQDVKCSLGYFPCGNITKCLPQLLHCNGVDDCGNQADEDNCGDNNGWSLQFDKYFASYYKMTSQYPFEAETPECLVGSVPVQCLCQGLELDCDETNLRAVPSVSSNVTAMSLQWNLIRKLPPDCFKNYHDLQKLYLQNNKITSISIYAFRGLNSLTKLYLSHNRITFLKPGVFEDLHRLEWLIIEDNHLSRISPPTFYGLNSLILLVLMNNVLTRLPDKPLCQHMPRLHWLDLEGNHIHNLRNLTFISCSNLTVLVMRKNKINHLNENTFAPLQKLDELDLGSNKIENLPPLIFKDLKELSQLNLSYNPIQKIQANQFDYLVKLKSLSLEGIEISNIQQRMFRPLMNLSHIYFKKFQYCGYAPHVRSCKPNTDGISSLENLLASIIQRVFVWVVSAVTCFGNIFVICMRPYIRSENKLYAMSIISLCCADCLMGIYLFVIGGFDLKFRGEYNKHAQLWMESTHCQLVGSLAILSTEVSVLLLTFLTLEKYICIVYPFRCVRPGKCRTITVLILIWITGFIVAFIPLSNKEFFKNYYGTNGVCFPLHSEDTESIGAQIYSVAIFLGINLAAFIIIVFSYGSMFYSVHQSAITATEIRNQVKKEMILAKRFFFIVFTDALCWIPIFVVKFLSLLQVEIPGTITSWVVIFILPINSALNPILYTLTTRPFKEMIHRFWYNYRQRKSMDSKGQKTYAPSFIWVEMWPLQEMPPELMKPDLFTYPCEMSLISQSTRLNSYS
Protocol: Relaxin activity in blood samples obtained from scR-Fc 13 treated rats by using the CHO-CRE-LGR7 cell line was determined. Blood samples collected 3, 5, and 7 days after intravenous administration of scR-Fc 13 were incubated on the CHO-CRE-LGR7 cell line and Relative Lights Units were determined. Calibration curves were determined using hRelaxin 2 (R&D Systems, catalogue number 6586-RN-025) and purified scR-Fc 13. The EC50 within the dose response curve is marked by an X. Data are expressed as Relative Light Units, representing the activity of scR-Fc variants and hRelaxin 2 induced luciferase expression. Symbols represent means, error bars represent S.E.M.

[2] = tested on: isolated perfused rat heart; assay: Isolated perfused rat heart (Langendorff); set-up: species or system Wistar rats
Protocol: Male Wistar rats (200-250 g) were anesthetized using Narcoren (100 mg/kg i.p.). The heart was rapidly excised and connected to a Langendorff perfusion system (FMI GmbH, Seeheim-Ober Beerbach, Germany). The heart was perfused at a constant rate of 10 ml/min with Krebs-Henseleit bicarbonate buffer solution equilibrated with 95% O2-5% CO2. The perfusion solution contained (in mmol/l): NaCl 118; KCl 3; NaHCO3 22; KH2PO41,2; MgSO4 1,2; CaCl2 1,8; Glucose 10; Na-Pyruvat 2. A pressure transducer registered the perfusion pressure in the perfusion system. The left ventricular pressure (LVP) was measured using a second pressure transducer connected to a water-filled balloon which was inserted into the left ventricle via the left atrium. The end diastolic pressure was initially set to 8 mm Hg by adjusting the volume of the balloon. The hearts were spontaneously beating. The signals from the pressure transducer were amplified, registered and used for the calculation of the heart frequency and +dp/dt by a personal computer.

B1: scR-Fc 13: rat IgG2b Fc (6 Histidine tag) linked via GlyGlySerGlyGlySerGlyGlySerPro to N terminal end of scR4; SEQ ID NO: 28 (protein)
chain: HHHHHHPTCPTCHKCPVPELLGGPSVFIFPPKPKDILLISQNAKVTCVVVDVSEEEPDVQFSWFVNNVEVHTAQTQPREEQYNSTFRVVSALPIQHQDWMSGKEFKCKVNNKALPSPIEKTISKPKGLVRKPQVYVMGPPTEQLTEQTVSLTCLTSGFLPNDIGVEWTSNGHIEKNYKNTEPVMDSDGSFFMYSKLNVERSRWDSRAPFVCSVVHEGLHNHHVEKSISRPPGKGGSGGSGGSPQLYSALANKCCHVGCTKRSLARFCGGGSGGGSGSWMEEVIKLCGRELVRAQIAICGMSTWS
- activity of plasma samples [1]: activity could be determined
- coronary flow ([2]; perfusion, FIG. 11): significant increase
- heart rate ([2]; perfusion, FIG. 11): significant increase
- left ventricular diastolic pressure ([2]; perfusion, FIG. 11): decrease
- left ventricular pressure (+dp/dtmax) ([2]; perfusion, FIG. 11): decrease
- effects on heart rate, coronary flow and contractility compared with hRelaxin 2 ([2]; ten fold higher concentration than hRelaxin 2 (1 nM)): Comparable effects
